Data reported in patent EP0842948B1 (MOCHIDA PHARMACEUTICAL CO., LTD., dated 2009).
Several values for one entry are separate records, joined by “and”; a condition that tells them apart may be missing. Equal entries are not always repeated.

How the values were obtained:
[1] = target: T1, human Fas ligand expressed on 1A12 cells (human, UniProt P48023 1-281); assay: competitive binding against 125I-labelled mouse F919 on 1A12 cells
T1 construct: whole, on cells; also called Fas ligand antigen on 1A12 transfectant cells
T1 sequence (looked up): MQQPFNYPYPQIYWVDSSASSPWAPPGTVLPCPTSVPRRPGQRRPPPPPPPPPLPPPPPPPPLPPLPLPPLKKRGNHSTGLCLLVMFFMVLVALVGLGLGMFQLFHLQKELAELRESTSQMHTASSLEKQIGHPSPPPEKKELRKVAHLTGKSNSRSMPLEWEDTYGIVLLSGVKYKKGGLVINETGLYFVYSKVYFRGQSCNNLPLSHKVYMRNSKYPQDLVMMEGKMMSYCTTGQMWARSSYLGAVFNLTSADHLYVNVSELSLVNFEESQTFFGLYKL

[2] = target: extracellular domain of the Fas ligand derived from COS-1 cell (human); assay: cell-based or functional assay

Ka [1]: 3e+08 M⁻¹ and 4e+08 M⁻¹ | apoptosis-suppression activity (fold against F883-1-1) [2]: 100
B1: mouse monoclonal antibody F919-9-18 (antibody, V domains shown)
VH: QIQLVQSGPELKKPGETVKISCKASGYTFTEYPMHWVKQAPGKGFKWMGMIYTDTGEPSYAEEFKGRFAFSLETSASTAYLQINFLKNEDTATYFCVRFYWDYFDYWGQGTTLTVSS
VL: DIQMTQTTSSLSASLGDRVTISCRASQDISNYLNWYQQKPDGTVKLLIYYTSRLHSGVPSRFSGSGSGTNYSLTISNLEQGDIATYFCQQGSTLPWTFGGGTKLEIK
